Test [1] deals with T1, cynomolgus monkey CCR7 (cynomolgus monkey, UniProt P32248 25-378 (human entry)).
T1 construct: also called Cyno CCR7; NIH3T3.cyno CCR7
T1 sequence: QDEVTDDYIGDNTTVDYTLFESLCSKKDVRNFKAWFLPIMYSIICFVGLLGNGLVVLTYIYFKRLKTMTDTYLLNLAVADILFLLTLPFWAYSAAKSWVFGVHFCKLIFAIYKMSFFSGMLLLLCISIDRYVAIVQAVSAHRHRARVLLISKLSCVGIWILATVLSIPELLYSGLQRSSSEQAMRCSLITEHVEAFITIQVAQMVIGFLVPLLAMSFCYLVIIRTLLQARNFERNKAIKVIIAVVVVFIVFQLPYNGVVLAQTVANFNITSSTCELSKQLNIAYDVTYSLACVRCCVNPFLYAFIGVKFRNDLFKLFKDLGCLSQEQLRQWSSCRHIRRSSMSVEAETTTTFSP
Description: FACS titration, cynomolgus CD4+ T cells.

The target of test [2] is T2, mouse CCR7 (mouse, UniProt P47774 25-378).
T2 construct: also called NIH3T3.mouse CCR7
T2 sequence: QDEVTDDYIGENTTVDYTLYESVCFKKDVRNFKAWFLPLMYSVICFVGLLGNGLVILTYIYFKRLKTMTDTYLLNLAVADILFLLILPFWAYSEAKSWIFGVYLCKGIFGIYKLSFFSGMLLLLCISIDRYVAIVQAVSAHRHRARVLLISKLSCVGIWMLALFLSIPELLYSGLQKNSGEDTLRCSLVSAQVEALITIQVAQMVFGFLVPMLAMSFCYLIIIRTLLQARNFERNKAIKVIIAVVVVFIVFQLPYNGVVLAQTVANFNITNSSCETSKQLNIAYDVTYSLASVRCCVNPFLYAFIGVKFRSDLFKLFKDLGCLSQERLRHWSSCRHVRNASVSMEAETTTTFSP
Description: FACS titration, NIH3T3 cells expressing mouse CCR7.

For test [3], the target named is T3, human CCR7 (human, UniProt P32248 25-378).
T3 sequence: T1 sequence with G174D
Nature of the test: cell-based or functional assay.

For test [4], the target named is T4, rat CCR7 (rat, UniProt P47774 25-378 (mouse entry)).
T4 construct: also called NIH3T3.rat CCR7
T4 chain: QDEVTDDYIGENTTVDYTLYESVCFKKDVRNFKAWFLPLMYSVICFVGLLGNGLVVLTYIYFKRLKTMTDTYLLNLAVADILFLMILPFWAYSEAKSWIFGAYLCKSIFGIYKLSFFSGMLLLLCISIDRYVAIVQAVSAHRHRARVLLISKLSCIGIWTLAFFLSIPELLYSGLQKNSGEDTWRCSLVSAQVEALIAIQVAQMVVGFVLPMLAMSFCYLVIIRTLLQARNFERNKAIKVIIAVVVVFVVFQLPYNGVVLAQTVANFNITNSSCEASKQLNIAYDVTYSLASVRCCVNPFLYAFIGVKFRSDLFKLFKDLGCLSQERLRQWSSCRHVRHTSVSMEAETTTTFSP
Description: FACS titration, Wistar rat CD4+ T cells.

For test [5], the target named is T2, mouse CCR7. Description: FACS titration, CD-1 mouse CD4+ T cells.
The target in test [6] is T1, cynomolgus monkey CCR7. Nature of the test: FACS titration, NIH3T3 cells expressing cyno CCR7.
The target in test [7] is T3, human CCR7. Nature of the test: FACS titration, human CD4+ T cells from PBMC.
Test [8] has as its target T3, human CCR7. Description: FACS titration, Jeko-1 cancer cells (CCR7+).
In test [9] the target is T3, human CCR7. Nature of the test: FACS titration, NIH3T3 cells expressing human CCR7.
Test [10] deals with T4, rat CCR7. Nature of the test: FACS titration, NIH3T3 cells expressing rat CCR7.
Test [11] addresses T1, cynomolgus monkey CCR7. Description: FACS titration, cynomolgus CD4+ T cells. This is another data set of the same source.
For test [12], the target named is T3, human CCR7. Nature of the test: ELISA on CCR7-expressing VLPs, pH 7.4 buffer.
Test [13] deals with T1, cynomolgus monkey CCR7. Nature of the test: FACS titration, NIH3T3 cells expressing cyno CCR7. This is another data set of the same source.
Test [14] addresses T3, human CCR7. Nature of the test: ELISA on CCR7-expressing VLPs, pH 5.8 buffer. On the technique in general: ELISA stands for enzyme-linked immunosorbent assay.
For test [15], the target named is T3, human CCR7. Nature of the test: FACS titration, NIH3T3 cells expressing human CCR7. This is another data set of the same source.
Test [16] has as its target T3, human CCR7. Nature of the test: FACS titration, DEL cells (CCR7 receptor levels >=100,000).
The target in a further test is T5, CXCR4 (UniProt P61073 1-352, limits assumed).
T5 construct: whole, on cells; also called HEK293-CXCR4
T5 sequence (P61073 whole entry): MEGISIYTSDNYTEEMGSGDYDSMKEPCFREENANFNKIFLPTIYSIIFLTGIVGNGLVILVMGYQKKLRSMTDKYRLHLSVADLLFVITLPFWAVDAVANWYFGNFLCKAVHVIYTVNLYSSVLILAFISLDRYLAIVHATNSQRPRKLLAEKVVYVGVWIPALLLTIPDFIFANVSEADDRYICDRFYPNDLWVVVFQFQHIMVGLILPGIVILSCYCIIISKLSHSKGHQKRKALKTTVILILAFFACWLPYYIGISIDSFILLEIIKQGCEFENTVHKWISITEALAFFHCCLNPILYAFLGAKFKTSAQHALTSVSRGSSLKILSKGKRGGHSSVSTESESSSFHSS
Nature of the test: FACS on HEK293-CXCR4 cells.

Test [17] has as its target T3, human CCR7. Nature of the test: FACS titration, human CD4+ T cells from PBMC. The source holds these as a separate data set.
Another test deals with T6, CCR8 (UniProt P51685 1-355, limits assumed).
T6 construct: whole, on cells; also called CHO-CCR8
T6 sequence (P51685 whole entry): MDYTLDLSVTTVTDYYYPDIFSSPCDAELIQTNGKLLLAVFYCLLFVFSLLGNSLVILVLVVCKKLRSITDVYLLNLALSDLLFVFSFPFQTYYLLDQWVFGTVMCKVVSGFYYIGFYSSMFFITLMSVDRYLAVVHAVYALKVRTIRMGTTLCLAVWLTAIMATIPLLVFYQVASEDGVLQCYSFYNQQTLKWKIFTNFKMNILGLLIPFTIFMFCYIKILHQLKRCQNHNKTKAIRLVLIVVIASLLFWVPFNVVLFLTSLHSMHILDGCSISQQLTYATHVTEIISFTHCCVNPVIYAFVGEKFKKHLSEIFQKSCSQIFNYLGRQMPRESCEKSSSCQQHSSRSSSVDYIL
Description: FACS on CHO-CCR8 cells.

In the next test the target is T7, CCR9 (UniProt P51686 1-369, limits assumed).
T7 construct: whole, on cells; also called PF382 cells (CCR7-/CCR9+/CCR6+)
T7 sequence (looked up): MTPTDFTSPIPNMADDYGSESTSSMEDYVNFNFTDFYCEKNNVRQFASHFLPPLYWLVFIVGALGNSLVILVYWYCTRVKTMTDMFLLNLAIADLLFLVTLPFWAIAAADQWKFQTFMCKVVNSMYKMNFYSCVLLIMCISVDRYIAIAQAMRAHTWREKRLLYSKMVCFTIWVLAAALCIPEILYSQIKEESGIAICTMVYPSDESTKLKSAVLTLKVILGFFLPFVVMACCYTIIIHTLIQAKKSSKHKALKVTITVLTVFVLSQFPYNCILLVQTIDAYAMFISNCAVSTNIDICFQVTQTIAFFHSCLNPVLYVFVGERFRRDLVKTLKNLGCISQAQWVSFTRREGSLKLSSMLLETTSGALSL
Nature of the test: FACS on PF382 cells (CCR7-/CCR9+/CCR6+).

For the next test, the target named is T8, CCR6 (UniProt P51684 1-374, limits assumed).
T8 construct: whole, on cells; also called PF382 cells (CCR7-/CCR9+/CCR6+)
T8 sequence (looked up): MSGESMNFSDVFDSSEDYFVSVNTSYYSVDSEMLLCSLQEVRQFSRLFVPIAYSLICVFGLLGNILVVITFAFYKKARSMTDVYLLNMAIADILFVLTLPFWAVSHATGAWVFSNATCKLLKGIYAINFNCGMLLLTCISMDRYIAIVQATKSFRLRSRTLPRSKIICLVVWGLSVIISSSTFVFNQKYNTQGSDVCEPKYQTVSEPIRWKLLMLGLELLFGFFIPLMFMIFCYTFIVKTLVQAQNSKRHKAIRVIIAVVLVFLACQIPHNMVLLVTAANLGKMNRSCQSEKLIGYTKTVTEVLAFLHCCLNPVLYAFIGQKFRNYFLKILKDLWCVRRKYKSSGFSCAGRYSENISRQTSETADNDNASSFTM
Nature of the test: FACS on PF382 cells (CCR7-/CCR9+/CCR6+).

Numbering of substitutions follows the chain as printed. Names may count otherwise.

B1: 121G12 non-humanized CysMab (antibody, human IgG1, kappa, V domains shown)
VH: EVQLVESGGGLVKPGGSLKLSCAASGFTFSTYAMSWVRQTPEKRLEWVATISDGGSYSYYPDNVKGRFTISRDNAKNNLYLQMSHLKSEDTAMYYCARRGSRYEEYYVMDYWGQGTSVTVSS
VL: DIVLTQSPATLSVTPGDSVSLSCRASQSISNNLHWYQQKSHESPKLLIKYASQSISGIPSRFSGSGSGTDFTLSINSVETEDFGMYFCQQSNSWLTFGAGTKLGLKR
notes: Chimeric: murine variable regions on human IgG1 kappa with CysMab cysteines (E152C, S375C) and wild type Fc; also called Parental 121G12 hIgG1 CysMab; Non-humanized CysMab antibody 121G12
Regarding B1, the EC50 is 5.8 to 12 nM with cynomolgus monkey CCR7 [1]; 2.5 nM with mouse CCR7 [2]; 18 to 31 nM in the test with rat CCR7 [4]; 48 to 51 nM in the test with mouse CCR7 [5]; 1.3 nM in the test with cynomolgus monkey CCR7 [6]; 22 to 30 nM with human CCR7 [7]. The values for the EC50 with human CCR7 [8], with human CCR7 [9] and with rat CCR7 [10] were 1.5 nM, 1.3 nM and 2.4 nM, respectively. Further, the “ADCC activity; IC50 (nM); reporter assay, JVM2 targets and Jurkat-V158 effectors” value in the test with human CCR7 [3] amounted to 0.077 nM.

B2: 121G12 humanized CysMab (Fc Wild Type) (antibody, V domains shown)
VH: EVQLVESGGGLVKPGGSLRLSCAASGFTFSTYAMSWVRQAPGKGLEWVATISDAGSYSYYPDNVKGRFTISRDNAKNSLYLQMNSLRAEDTAVYYCARRGSRYEEYYVMDYWGQGTTVTVSS
VL: EIVLTQSPATLSVSPGERVTLSCRASQSISNNLHWYQQKPGQAPRLLIKYASQSISGIPARFSGSGSGTDFTLTISSVEPEDFGVYFCQQSSSWLTFGQGTKLEIK
notes: Human IgG1 kappa with CysMab cysteines (E152C, S375C); also called Humanized CysMab antibody 121G12; 121G12.CysMab.DAR4 unconjugated (assigned)
Consider B2, for which the EC50 with cynomolgus monkey CCR7 [11] is 12 nM; in the test with cynomolgus monkey CCR7 [13], 0.9 nM; with human CCR7 [15], 1 nM; with human CCR7 [16], 5.24 nM; with human CCR7 [17], 30 to 34 nM. In addition, the figures for the Kd with human CCR7 [12] and with human CCR7 [14] were 0.141 nM and 0.521 nM, respectively. Moreover, the binding result in the test with CXCR4, with CCR8, in the test with CCR9 and in the test with CCR6 was “no binding (tested: 5 ug/ml)” each time.

One may read the EC50 as the concentration needed to bring the measured effect to its halfway point. By Kd is commonly meant the equilibrium constant for the complex coming apart.

The values above are taken from US20230181756A1 (Novartis, published 2023).
